We go through four molecules from article PMC7139218, “Structural Basis for Rab8a Recruitment of RILPL2 via LRRK2 Phosphorylation of Switch 2” (Structure(London, England:1993), 2020).

No end group written: not given here.

Data set [1] has as its target RILPL2 (Mus musculus) (UniProt Q99LE1). To be noted: cited from earlier work.
Data set [2] concerns the molecule itself. The experiment in a line: SEC-MALS; static light scattering coupled to gel filtration, Superdex 200 (10/300); full-length RILPL2 with uncleaved polyhistidine tag, 500 μL at 1 mg/mL.
Data set [3] concerns the molecule itself. Description: crystal structure; pRab8(Q67L):His6-RL2 complex, 1:1 molar ratio of protein:peptide, 12 mg/mL; 100 mM HEPES pH 7, 10% PEG4,000, 10% 2-propanol; 1.8 Å.
Data set [4] concerns the target T72 phosphorylated Rab8a(GTP), residues 1-181, Q67L (UniProt P61006). Description: ITC; His6-RILPL2 129-165 (400-600 μM) injected into Rab8a or pRab8a 1-181 (40-60 μM); 10 mM Tris-HCl, 300 mM NaCl, 5 mM MgCl2, 20 mM imidazole, 1 mM DTT; triplicate.
The target of data set [5] is T1, His6-tagged RILPL2 (full length, 1-211) (Homo sapiens (Human), UniProt Q969X0).
T1 chain: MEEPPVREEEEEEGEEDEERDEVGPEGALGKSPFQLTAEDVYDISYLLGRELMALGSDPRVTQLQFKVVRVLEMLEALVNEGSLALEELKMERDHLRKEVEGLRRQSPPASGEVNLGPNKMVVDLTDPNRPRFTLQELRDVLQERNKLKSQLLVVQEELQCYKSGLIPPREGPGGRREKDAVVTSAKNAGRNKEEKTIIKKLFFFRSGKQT
The experiment in a line: Ni-agarose pull-down (SDS-PAGE, Coomassie).

Chain of RILPL2 (Mus musculus) (Q99LE1 whole entry): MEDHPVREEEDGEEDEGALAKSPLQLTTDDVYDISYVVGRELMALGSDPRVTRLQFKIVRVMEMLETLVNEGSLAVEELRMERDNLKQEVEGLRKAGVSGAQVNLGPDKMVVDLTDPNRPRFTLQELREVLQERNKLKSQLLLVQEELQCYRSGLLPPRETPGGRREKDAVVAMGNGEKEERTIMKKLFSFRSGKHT
Chain of T72 phosphorylated Rab8a(GTP), residues 1-181, Q67L (P61006 1-181 Q67L): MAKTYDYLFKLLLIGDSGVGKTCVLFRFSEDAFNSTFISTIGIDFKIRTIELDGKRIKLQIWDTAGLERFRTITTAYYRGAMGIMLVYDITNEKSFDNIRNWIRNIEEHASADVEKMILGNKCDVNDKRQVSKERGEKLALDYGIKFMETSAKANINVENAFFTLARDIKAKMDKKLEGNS

Regarding Myosin Va (from UniProt Q99104), the Kd (usually the equilibrium constant for the complex coming apart) in data set [1] is 300 nM.

B1: His6-tagged RILPL2 (full length, 1-211) (natural protein, human, UniProt Q969X0 1-211, looked up)
chain: MEEPPVREEEEEEGEEDEERDEVGPEGALGKSPFQLTAEDVYDISYLLGRELMALGSDPRVTQLQFKVVRVLEMLEALVNEGSLALEELKMERDHLRKEVEGLRRQSPPASGEVNLGPNKMVVDLTDPNRPRFTLQELRDVLQERNKLKSQLLVVQEELQCYKSGLIPPREGPGGRREKDAVVTSAKNAGRNKEEKTIIKKLFFFRSGKQT
notes: RILPL2, human, full length (1-211), cDNA in pET15b; Dimer in solution by static light scattering coupled to gel filtration; also called full-length RILPL2; source: E. coli, purified (Ni-agarose, gel filtration), polyhistidine tag not removed
As for B1, the stoichiometry N (usually the number of molecules, sites or subunits per partner or assembly) in data set [2] is 2.

B2: His6-RILPL2 residues 129-165 (phospho-Rab binding domain, minimal RH2 motif) (peptide, UniProt Q969X0 129-165, looked up)
chain: His6-NRPRFTLQELRDVLQERNKLKSQLLVVQEELQCYKSG
notes: Parallel α-helical dimer in the crystal; also called His6-RL2; source: synthetic peptide (Genscript); not shown: His6, N-terminal, kept
Take B2: the “stoichiometry N” value in data set [3] came to 2. This molecule showed a Kd in data set [4] of 3300 nM.

B3: globular tail domain (GTD) of myosin Va (1462-1853) (protein)
chain: VNIPRKEKDFQGMLEYKREDEQKLVKNLILELKPRGVAVNLIPGLPAYILFMCVRHADYLNDDQKVRSLLTSTINSIKKVLKKRGDDFETVSFWLSNTCRFLHCLKQYSGEEGFMKHNTSRQNEHCLTNFDLAEYRQVLSDLAIQIYQQLVRVLENILQPMIVSGMLEHETIQGVSGVKPTGLRKRTSSIADEGTYTLDSILRQLNSFHSVMCQHGMDPELIKQVVKQMFYIVGAITLNNLLLRKDMCSWSKGMQIRYNVSQLEEWLRDKNLMNSGAKETLEPLIQAAQLLQVKKKTDDDAEAICSMCNALTTAQIVKVLNLYTPVNEFEERVSVSFIRTIQMRLRDRKDSPQLLMDAKHIFPVTFPFNPSSLALETIQIPASLGLGFIARV
For B3, the binding result in data set [5] is on record as “binds”.
